Holding throughout (assay): Western blot of SDS-PAGE-separated K8 GST fusion proteins, stained with COU-1 alone
One assay has as its target T1, K8 (1-367).
T1 construct: not shown: N-terminal GST and its linker (modified pGEX-2T)
T1 chain: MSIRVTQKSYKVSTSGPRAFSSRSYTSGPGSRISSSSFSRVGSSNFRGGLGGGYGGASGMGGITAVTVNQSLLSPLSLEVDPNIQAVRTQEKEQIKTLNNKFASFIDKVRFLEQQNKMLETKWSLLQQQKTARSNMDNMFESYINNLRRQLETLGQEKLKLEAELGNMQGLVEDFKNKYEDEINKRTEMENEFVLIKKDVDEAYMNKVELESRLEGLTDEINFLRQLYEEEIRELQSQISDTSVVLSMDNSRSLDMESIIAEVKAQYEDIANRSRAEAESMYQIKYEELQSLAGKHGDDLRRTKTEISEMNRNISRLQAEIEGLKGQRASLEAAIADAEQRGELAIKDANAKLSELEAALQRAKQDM

A further assay concerns the target T2, K8 (1-129).
T2 construct: not shown: N-terminal GST carrier (modified pGEX-2T) and any linker
T2 chain: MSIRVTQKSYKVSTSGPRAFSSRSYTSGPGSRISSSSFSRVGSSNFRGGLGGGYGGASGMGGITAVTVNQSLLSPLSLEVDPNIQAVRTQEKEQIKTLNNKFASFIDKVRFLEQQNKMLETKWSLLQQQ

The next assay deals with T3, K8 (1-342).
T3 construct: not shown: N-terminal GST and its linker (modified pGEX-2T)
T3 chain: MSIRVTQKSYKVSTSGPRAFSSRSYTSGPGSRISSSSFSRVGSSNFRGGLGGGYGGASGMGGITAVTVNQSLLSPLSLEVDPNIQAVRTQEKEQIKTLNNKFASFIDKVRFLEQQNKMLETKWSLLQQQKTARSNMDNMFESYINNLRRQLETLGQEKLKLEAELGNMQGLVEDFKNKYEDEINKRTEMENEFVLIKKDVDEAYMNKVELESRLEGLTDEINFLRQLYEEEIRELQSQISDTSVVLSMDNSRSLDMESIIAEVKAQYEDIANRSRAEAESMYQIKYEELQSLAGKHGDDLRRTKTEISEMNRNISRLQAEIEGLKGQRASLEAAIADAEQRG

The next assay addresses T4, K8 (1-299).
T4 construct: not shown: N-terminal GST and its linker (modified pGEX-2T)
T4 chain: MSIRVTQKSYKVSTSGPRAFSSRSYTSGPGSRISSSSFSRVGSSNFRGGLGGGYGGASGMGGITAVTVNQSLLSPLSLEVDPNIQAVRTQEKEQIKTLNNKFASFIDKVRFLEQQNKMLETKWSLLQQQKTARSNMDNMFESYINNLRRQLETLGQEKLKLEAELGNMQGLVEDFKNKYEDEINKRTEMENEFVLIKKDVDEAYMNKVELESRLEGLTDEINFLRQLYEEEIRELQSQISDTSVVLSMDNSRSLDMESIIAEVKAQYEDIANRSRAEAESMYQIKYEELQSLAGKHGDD

The target in the next assay is T5, K8 (1-352).
T5 construct: not shown: N-terminal GST and its linker (modified pGEX-2T)
T5 chain: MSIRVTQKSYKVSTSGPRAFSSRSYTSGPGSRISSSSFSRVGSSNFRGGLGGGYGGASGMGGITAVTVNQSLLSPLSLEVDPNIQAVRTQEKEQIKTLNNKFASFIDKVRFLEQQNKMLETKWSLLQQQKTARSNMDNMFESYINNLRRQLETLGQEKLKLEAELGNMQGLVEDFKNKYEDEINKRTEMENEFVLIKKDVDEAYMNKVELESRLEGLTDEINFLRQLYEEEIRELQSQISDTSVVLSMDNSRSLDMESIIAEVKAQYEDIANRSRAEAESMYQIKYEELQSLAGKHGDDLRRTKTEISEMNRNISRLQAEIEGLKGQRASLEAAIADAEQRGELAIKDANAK

In another assay the target is T6, K8 (1-383).
T6 construct: not shown: N-terminal GST and its linker (modified pGEX-2T)
T6 chain: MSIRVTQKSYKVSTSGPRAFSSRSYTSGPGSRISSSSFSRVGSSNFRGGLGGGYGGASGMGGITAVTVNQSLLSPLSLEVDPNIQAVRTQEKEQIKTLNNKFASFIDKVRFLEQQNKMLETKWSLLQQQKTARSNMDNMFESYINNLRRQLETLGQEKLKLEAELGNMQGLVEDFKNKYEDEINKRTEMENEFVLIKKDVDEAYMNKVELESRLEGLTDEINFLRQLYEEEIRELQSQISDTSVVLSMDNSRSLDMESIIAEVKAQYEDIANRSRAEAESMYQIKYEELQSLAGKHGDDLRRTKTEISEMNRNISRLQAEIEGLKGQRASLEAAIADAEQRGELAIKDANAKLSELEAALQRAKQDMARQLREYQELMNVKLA

For the next assay, the target named is T7, K8 (1-233).
T7 construct: not shown: N-terminal GST carrier (modified pGEX-2T) and any linker
T7 chain: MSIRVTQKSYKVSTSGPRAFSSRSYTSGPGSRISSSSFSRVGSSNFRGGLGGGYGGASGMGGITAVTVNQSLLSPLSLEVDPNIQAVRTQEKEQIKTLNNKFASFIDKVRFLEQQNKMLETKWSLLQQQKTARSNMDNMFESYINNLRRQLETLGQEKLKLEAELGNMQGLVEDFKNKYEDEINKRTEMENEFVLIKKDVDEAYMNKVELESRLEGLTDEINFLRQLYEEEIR

A further assay addresses T8, K8 (1-403).
T8 construct: not shown: N-terminal GST and its linker (modified pGEX-2T)
T8 chain: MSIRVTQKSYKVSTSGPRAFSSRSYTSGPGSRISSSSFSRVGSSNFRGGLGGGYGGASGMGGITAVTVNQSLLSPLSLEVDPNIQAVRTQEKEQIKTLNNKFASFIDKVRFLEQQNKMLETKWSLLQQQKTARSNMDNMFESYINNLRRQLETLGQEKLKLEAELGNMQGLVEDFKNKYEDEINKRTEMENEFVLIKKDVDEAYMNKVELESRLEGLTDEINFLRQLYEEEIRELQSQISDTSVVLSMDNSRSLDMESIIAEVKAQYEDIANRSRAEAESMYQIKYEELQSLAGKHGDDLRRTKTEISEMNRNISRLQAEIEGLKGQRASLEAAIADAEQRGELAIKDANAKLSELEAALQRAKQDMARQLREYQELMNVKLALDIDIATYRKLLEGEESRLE

Procedure for K8 (1-129): (§1) Electrophoresis was performed in a discontinuous buffer system on 8 cm 4-20% or 10% (w/v) polyacrylamide gels for analysis and on 15 cm 14% polyacrylamide gels for N-terminal sequencing (36). Samples were mixed with 2× sample buffer (4% SDS, 0.2% bromophenol blue, 20% glycerol in 100 mM Tris buffered saline), boiled for 5 min and resolved under denaturing and reducing (100 mM DTT) conditions. Protein bands were visualized with Coomassie Brilliant Blue. Separated proteins were also electroblotted onto polyvinylidene difluoride membranes (PVDF, Immobilon P, Millipore, Bedford, Mass.), at 100 Volts for 1 h in ice, using transfer buffer (10% (v/v) ethanol, 25 mM Tris, 200 mM glycine). Prior to transfer, the membrane was pre-soaked in ethanol for 2 min and the membranes and the gel were incubated in transfer buffer for 10 min. […] The membrane was washed in Western blot buffer and incubated with AP-conjugated rabbit-anti-goat IgG antibody (diluted 1/1000, Sigma), or AP-conjugated rabbit-anti-human IgM antibody (diluted 1/500, DAKO, Glostrup, Denmark) for 2 h at room temperature. Following 3 washes in PBS, the membrane was fixed with 0.2% glutaraldehyde in PBS for 15 min at room temperature and finally washed in PBS. Bound AP conjugate was visualized by NBT/BCIP (Bio-Rad, Hercules, Calif.). MCF7 or Colon 137 cells, resuspended in SDS sample buffer and sonicated, were used as antigen control. A low range protein marker (Bio-Rad) was used to indicate the molecular weight of the fragments.
Procedure for K8 (1-233): as §1
Procedure for K8 (1-299): as §1
Procedure for K8 (1-342): as §1
Procedure for K8 (1-352): as §1
Procedure for K8 (1-367): as §1
Procedure for K8 (1-383): as §1
Procedure for K8 (1-403): as §1

B1: human monoclonal IgM antibody COU-1 (antibody, V domains shown)
VH: GAEVKKPGASVKVSCKASDYTFSSYYMHWVRQAPGQGLEWMGIINPSGGSTSYAQKFQGRVTMTRDTSTNTVYMELSSLRSEDTAVYYCARDQVVVAATLSNYGMDVWGQGTTVTVSS
VL: ELTQSPGTLSLSPGERATLSCRASQSVSSSYLAWYQQKPGQAPRLLIYDASNRATGIPARFSGSGSGTDFTLTISSLEPEDFAVYYCQQGTNWGIAFGQGTRLDIKR
notes: Human IgM with kappa light chain, secreted by hybridoma B9165 (ECACC 87040201), purified from culture supernatant; also called HMab COU-1; HuMab COU-1
Consider B1, for which the binding result with K8 (1-367), in the assay with K8 (1-129), with K8 (1-342), with K8 (1-299), in the assay with K8 (1-352) and with K8 (1-383) was “no binding (tested: 5 µg/ml COU-1 (P-0279))” each time. Moreover, the binding result with K8 (1-233) and with K8 (1-403) was “no binding (tested: 5 µg/ml COU-1 (P-0279))” throughout.
